Experimental data as given in PMC13379313, “Clocked stepping of an artificial protein walker along a DNA track”.

T1: MetJ (UniProt P0A8U6 2-105, Q45K)
T1 sequence: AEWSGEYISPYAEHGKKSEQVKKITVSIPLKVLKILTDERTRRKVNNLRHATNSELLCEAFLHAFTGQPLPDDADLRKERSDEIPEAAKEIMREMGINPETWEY


Key:
TrpR = TrpR (UniProt P0A881 2-108); test: SPR; Trp; SPR: 1 mM SAM, 0.4 mM CoCl2 or 0.5 mM Trp, 100 ul/min, streptavidin CM5 chip; running buffer, pH and temperature not in material (DNA annealed in 25 mM HEPES pH)
MetJ = target: T1, MetJ; test: SPR; SAM; SPR: 1 mM SAM, 0.4 mM CoCl2 or 0.5 mM Trp, 100 ul/min, streptavidin CM5 chip; running buffer, pH and temperature not in material (DNA annealed in 25 mM HEPES pH 7.4, 200 mM KCl, 5 mM MgCl2); conditions: protein: recombinant; tags: 8xHis, TEV-cleaved; chain copies: 2; label: 3' biotin on anchor strand S4 (SPR); 5' overhang 14 nt of strand 1, annealed to biotin anchor S4 in SPR

| Binder | Kd (TrpR) | Kd (MetJ) |
| --- | --- | --- |
| trpR single site (NR206/NR207) (dsDNA) DNA 1: CCACGCCCTAAGGTGAGCATAGTGGTACTCGCTAGCGAGTACCTCTGACTTC DNA 2: GAAGTCAGAGGTACTCGCTAGCGAGTACCACTATGCTC | 48 nM | – |
| metJ single site (NR139 top/bottom) (dsDNA) DNA 1: CCACGCCCTAAGGTATGCTAGTTTGAGACGTCTCAAAACAGGA DNA 2: TCCTGTTTTGAGACGTCTCAAACTAGCAT | – | 4 ± 0.4 nM |
